Source: patent US20200270325A1 (Merck Sharp & Dohme, published 2020)
Numbered stars: 1 amine (or outer) side, 2 acyl side, 3 side chain; on linkers, the order of the positions; unused ones are H or OH. Square brackets hold non-standard residues; d marks the D form. Side chains are listed from the residue outwards. Ends that are not written are not given here. * marks the point of attachment. Phe(4-CH2NH2) = NCc1ccc(C[C@H](N)C(=O)O)cc1; C18 diacid = O=C(O)CCCCCCCCCCCCCCCCC(=O)*; γGlu = O=C(O)[C@H](CCC(=O)[*:2])N[*:1]; Met(O2) = CS(=O)(=O)CC[C@H](N)C(=O)O; Nle = CCCC[C@H](N)C(=O)O; AEEA = NCCOCCOCC(=O)O; Aib = CC(C)(N)C(=O)O

B1: TP704 (peptide)
peptide: H[Aib]QGTFTSDYSKYLDARAAK([AEEA-AEEA-γGlu-C18 diacid])EFVQWL[Met(O2)]DT-NH2
modifications: N-terminus assumed
SMILES: CC(C)C[C@H](NC(=O)[C@H](Cc1ccc(O)cc1)NC(=O)[C@H](CCCCN)NC(=O)[C@H](CO)NC(=O)[C@H](Cc1ccc(O)cc1)NC(=O)[C@H](CC(=O)O)NC(=O)[C@H](CO)NC(=O)[C@@H](NC(=O)[C@H](Cc1ccccc1)NC(=O)[C@@H](NC(=O)CNC(=O)[C@H](CCC(N)=O)NC(=O)C(C)(C)NC(=O)[C@@H](N)Cc1c[nH]cn1)[C@@H](C)O)[C@@H](C)O)C(=O)N[C@@H](CC(=O)O)C(=O)N[C@@H](C)C(=O)N[C@@H](CCCNC(=N)N)C(=O)N[C@@H](C)C(=O)N[C@@H](C)C(=O)N[C@@H](CCCCNC(=O)COCCOCCNC(=O)COCCOCCNC(=O)CC[C@H](NC(=O)CCCCCCCCCCCCCCCCC(=O)O)C(=O)O)C(=O)N[C@@H](CCC(=O)O)C(=O)N[C@@H](Cc1ccccc1)C(=O)N[C@H](C(=O)N[C@@H](CCC(N)=O)C(=O)N[C@@H](Cc1c[nH]c2ccccc12)C(=O)N[C@@H](CC(C)C)C(=O)N[C@@H](CCS(C)(=O)=O)C(=O)N[C@@H](CC(=O)O)C(=O)N[C@H](C(N)=O)[C@@H](C)O)C(C)C
B2: TP700 (peptide)
peptide: H[Aib]QGTFTSDYSEYLDKRAAQDFVK([AEEA-AEEA-γGlu-C18 diacid])WL[Met(O2)]DT-NH2
modifications: N-terminus assumed
SMILES: CC(C)C[C@H](NC(=O)[C@H](Cc1ccc(O)cc1)NC(=O)[C@H](CCC(=O)O)NC(=O)[C@H](CO)NC(=O)[C@H](Cc1ccc(O)cc1)NC(=O)[C@H](CC(=O)O)NC(=O)[C@H](CO)NC(=O)[C@@H](NC(=O)[C@H](Cc1ccccc1)NC(=O)[C@@H](NC(=O)CNC(=O)[C@H](CCC(N)=O)NC(=O)C(C)(C)NC(=O)[C@@H](N)Cc1c[nH]cn1)[C@@H](C)O)[C@@H](C)O)C(=O)N[C@@H](CC(=O)O)C(=O)N[C@@H](CCCCN)C(=O)N[C@@H](CCCNC(=N)N)C(=O)N[C@@H](C)C(=O)N[C@@H](C)C(=O)N[C@@H](CCC(N)=O)C(=O)N[C@@H](CC(=O)O)C(=O)N[C@@H](Cc1ccccc1)C(=O)N[C@H](C(=O)N[C@@H](CCCCNC(=O)COCCOCCNC(=O)COCCOCCNC(=O)CC[C@H](NC(=O)CCCCCCCCCCCCCCCCC(=O)O)C(=O)O)C(=O)N[C@@H](Cc1c[nH]c2ccccc12)C(=O)N[C@@H](CC(C)C)C(=O)N[C@@H](CCS(C)(=O)=O)C(=O)N[C@@H](CC(=O)O)C(=O)N[C@H](C(N)=O)[C@@H](C)O)C(C)C
B3: TP699 (peptide)
peptide: H[Aib]QGTFTSEYSKKLDARAAQDFVK([AEEA-AEEA-γGlu-C18 diacid])WL[Met(O2)]DT-NH2
modifications: N-terminus assumed
SMILES: CC(C)C[C@H](NC(=O)[C@H](CCCCN)NC(=O)[C@H](CCCCN)NC(=O)[C@H](CO)NC(=O)[C@H](Cc1ccc(O)cc1)NC(=O)[C@H](CCC(=O)O)NC(=O)[C@H](CO)NC(=O)[C@@H](NC(=O)[C@H](Cc1ccccc1)NC(=O)[C@@H](NC(=O)CNC(=O)[C@H](CCC(N)=O)NC(=O)C(C)(C)NC(=O)[C@@H](N)Cc1c[nH]cn1)[C@@H](C)O)[C@@H](C)O)C(=O)N[C@@H](CC(=O)O)C(=O)N[C@@H](C)C(=O)N[C@@H](CCCNC(=N)N)C(=O)N[C@@H](C)C(=O)N[C@@H](C)C(=O)N[C@@H](CCC(N)=O)C(=O)N[C@@H](CC(=O)O)C(=O)N[C@@H](Cc1ccccc1)C(=O)N[C@H](C(=O)N[C@@H](CCCCNC(=O)COCCOCCNC(=O)COCCOCCNC(=O)CC[C@H](NC(=O)CCCCCCCCCCCCCCCCC(=O)O)C(=O)O)C(=O)N[C@@H](Cc1c[nH]c2ccccc12)C(=O)N[C@@H](CC(C)C)C(=O)N[C@@H](CCS(C)(=O)=O)C(=O)N[C@@H](CC(=O)O)C(=O)N[C@H](C(N)=O)[C@@H](C)O)C(C)C
B4: TP702 (peptide)
peptide: H[Aib]QGTFTSDYSKYLDARAAQEFVK([AEEA-AEEA-γGlu-C18 diacid])WL[Met(O2)]DT-NH2
modifications: N-terminus assumed
SMILES: CC(C)C[C@H](NC(=O)[C@H](Cc1ccc(O)cc1)NC(=O)[C@H](CCCCN)NC(=O)[C@H](CO)NC(=O)[C@H](Cc1ccc(O)cc1)NC(=O)[C@H](CC(=O)O)NC(=O)[C@H](CO)NC(=O)[C@@H](NC(=O)[C@H](Cc1ccccc1)NC(=O)[C@@H](NC(=O)CNC(=O)[C@H](CCC(N)=O)NC(=O)C(C)(C)NC(=O)[C@@H](N)Cc1c[nH]cn1)[C@@H](C)O)[C@@H](C)O)C(=O)N[C@@H](CC(=O)O)C(=O)N[C@@H](C)C(=O)N[C@@H](CCCNC(=N)N)C(=O)N[C@@H](C)C(=O)N[C@@H](C)C(=O)N[C@@H](CCC(N)=O)C(=O)N[C@@H](CCC(=O)O)C(=O)N[C@@H](Cc1ccccc1)C(=O)N[C@H](C(=O)N[C@@H](CCCCNC(=O)COCCOCCNC(=O)COCCOCCNC(=O)CC[C@H](NC(=O)CCCCCCCCCCCCCCCCC(=O)O)C(=O)O)C(=O)N[C@@H](Cc1c[nH]c2ccccc12)C(=O)N[C@@H](CC(C)C)C(=O)N[C@@H](CCS(C)(=O)=O)C(=O)N[C@@H](CC(=O)O)C(=O)N[C@H](C(N)=O)[C@@H](C)O)C(C)C
B5: TP705 (peptide)
peptide: H[Aib]QGTFTSDYSKYLDARAAK([AEEA-AEEA-γGlu-C18 diacid])DFVEWL[Met(O2)]KT-NH2
modifications: N-terminus assumed
SMILES: CC(C)C[C@H](NC(=O)[C@H](Cc1ccc(O)cc1)NC(=O)[C@H](CCCCN)NC(=O)[C@H](CO)NC(=O)[C@H](Cc1ccc(O)cc1)NC(=O)[C@H](CC(=O)O)NC(=O)[C@H](CO)NC(=O)[C@@H](NC(=O)[C@H](Cc1ccccc1)NC(=O)[C@@H](NC(=O)CNC(=O)[C@H](CCC(N)=O)NC(=O)C(C)(C)NC(=O)[C@@H](N)Cc1c[nH]cn1)[C@@H](C)O)[C@@H](C)O)C(=O)N[C@@H](CC(=O)O)C(=O)N[C@@H](C)C(=O)N[C@@H](CCCNC(=N)N)C(=O)N[C@@H](C)C(=O)N[C@@H](C)C(=O)N[C@@H](CCCCNC(=O)COCCOCCNC(=O)COCCOCCNC(=O)CC[C@H](NC(=O)CCCCCCCCCCCCCCCCC(=O)O)C(=O)O)C(=O)N[C@@H](CC(=O)O)C(=O)N[C@@H](Cc1ccccc1)C(=O)N[C@H](C(=O)N[C@@H](CCC(=O)O)C(=O)N[C@@H](Cc1c[nH]c2ccccc12)C(=O)N[C@@H](CC(C)C)C(=O)N[C@@H](CCS(C)(=O)=O)C(=O)N[C@@H](CCCCN)C(=O)N[C@H](C(N)=O)[C@@H](C)O)C(C)C
B6: TP703 (peptide)
peptide: H[Aib]QGTFTSEYSKKLDARAAK([AEEA-AEEA-γGlu-C18 diacid])DFVQWL[Met(O2)]DT-NH2
modifications: N-terminus assumed
SMILES: CC(C)C[C@H](NC(=O)[C@H](CCCCN)NC(=O)[C@H](CCCCN)NC(=O)[C@H](CO)NC(=O)[C@H](Cc1ccc(O)cc1)NC(=O)[C@H](CCC(=O)O)NC(=O)[C@H](CO)NC(=O)[C@@H](NC(=O)[C@H](Cc1ccccc1)NC(=O)[C@@H](NC(=O)CNC(=O)[C@H](CCC(N)=O)NC(=O)C(C)(C)NC(=O)[C@@H](N)Cc1c[nH]cn1)[C@@H](C)O)[C@@H](C)O)C(=O)N[C@@H](CC(=O)O)C(=O)N[C@@H](C)C(=O)N[C@@H](CCCNC(=N)N)C(=O)N[C@@H](C)C(=O)N[C@@H](C)C(=O)N[C@@H](CCCCNC(=O)COCCOCCNC(=O)COCCOCCNC(=O)CC[C@H](NC(=O)CCCCCCCCCCCCCCCCC(=O)O)C(=O)O)C(=O)N[C@@H](CC(=O)O)C(=O)N[C@@H](Cc1ccccc1)C(=O)N[C@H](C(=O)N[C@@H](CCC(N)=O)C(=O)N[C@@H](Cc1c[nH]c2ccccc12)C(=O)N[C@@H](CC(C)C)C(=O)N[C@@H](CCS(C)(=O)=O)C(=O)N[C@@H](CC(=O)O)C(=O)N[C@H](C(N)=O)[C@@H](C)O)C(C)C
B7: TP701 (peptide)
peptide: H[Aib]QGTFTSDYSKYLDERAAKDFVK([AEEA-AEEA-γGlu-C18 diacid])WL[Met(O2)]DT-NH2
modifications: N-terminus assumed
SMILES: CC(C)C[C@H](NC(=O)[C@H](Cc1ccc(O)cc1)NC(=O)[C@H](CCCCN)NC(=O)[C@H](CO)NC(=O)[C@H](Cc1ccc(O)cc1)NC(=O)[C@H](CC(=O)O)NC(=O)[C@H](CO)NC(=O)[C@@H](NC(=O)[C@H](Cc1ccccc1)NC(=O)[C@@H](NC(=O)CNC(=O)[C@H](CCC(N)=O)NC(=O)C(C)(C)NC(=O)[C@@H](N)Cc1c[nH]cn1)[C@@H](C)O)[C@@H](C)O)C(=O)N[C@@H](CC(=O)O)C(=O)N[C@@H](CCC(=O)O)C(=O)N[C@@H](CCCNC(=N)N)C(=O)N[C@@H](C)C(=O)N[C@@H](C)C(=O)N[C@@H](CCCCN)C(=O)N[C@@H](CC(=O)O)C(=O)N[C@@H](Cc1ccccc1)C(=O)N[C@H](C(=O)N[C@@H](CCCCNC(=O)COCCOCCNC(=O)COCCOCCNC(=O)CC[C@H](NC(=O)CCCCCCCCCCCCCCCCC(=O)O)C(=O)O)C(=O)N[C@@H](Cc1c[nH]c2ccccc12)C(=O)N[C@@H](CC(C)C)C(=O)N[C@@H](CCS(C)(=O)=O)C(=O)N[C@@H](CC(=O)O)C(=O)N[C@H](C(N)=O)[C@@H](C)O)C(C)C

target: human GLP-1 receptor (GLP1R) (human, UniProt P43220 24-463); assay: cell-based or functional assay

Binder	GLP1R EC50 human [nM]
B1	0.37
H[Aib]QGTFTSDYSKYLDARAAQ[Phe(4-CH2NH2)]([AEEA-AEEA-γGlu-C20‑OH])FVQWLLDT-NH2 [TP585]	0.566
B2	0.35
H[Aib]QGTFTSDYSKYLDARAA[Nle]([1,2,3‑triazole‑5-AEEA-AEEA-γGlu-C18 diacid])DFVQWL[Met(O2)]DT-NH2 [TP712]	0.45
B3	> 19.8
B4	0.27
B5	0.41
B6	> 19.8
B7	0.18

target: human Glucagon receptor (GCGR) (human, UniProt P47871 26-477); assay: cell-based or functional assay
Sequence (P47871 26-477): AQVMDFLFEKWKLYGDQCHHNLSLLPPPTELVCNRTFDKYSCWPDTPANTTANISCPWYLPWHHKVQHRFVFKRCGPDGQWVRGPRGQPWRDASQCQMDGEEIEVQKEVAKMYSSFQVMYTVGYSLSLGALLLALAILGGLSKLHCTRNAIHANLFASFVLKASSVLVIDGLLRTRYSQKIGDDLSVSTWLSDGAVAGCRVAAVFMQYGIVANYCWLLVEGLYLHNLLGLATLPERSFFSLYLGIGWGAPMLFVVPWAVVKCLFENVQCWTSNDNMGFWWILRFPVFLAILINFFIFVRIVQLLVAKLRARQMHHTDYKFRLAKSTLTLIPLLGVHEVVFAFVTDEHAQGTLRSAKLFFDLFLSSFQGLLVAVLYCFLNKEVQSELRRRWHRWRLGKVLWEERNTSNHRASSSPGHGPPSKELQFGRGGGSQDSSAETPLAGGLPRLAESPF

Binder	GCGR EC50 human [nM]
B1	0.27
H[Aib]QGTFTSDYSKYLDARAAQ[Phe(4-CH2NH2)]([AEEA-AEEA-γGlu-C20‑OH])FVQWLLDT-NH2 [TP585]	1.13
B2	> 4.9
H[Aib]QGTFTSDYSKYLDARAA[Nle]([1,2,3‑triazole‑5-AEEA-AEEA-γGlu-C18 diacid])DFVQWL[Met(O2)]DT-NH2 [TP712]	0.25
B3	> 19.8
B4	0.35
B5	1.48
B6	> 19.8
B7	> 4.9
